How the values were obtained:
[1] = target: HLA-DR1 (DRB*0101), purified from B-lymphoblastic cell line LG2.1 (human); test: competition with fluorescent HA308-319 on purified HLA-DR1
[2] = target: HLA-DR2 (DRB1*0201 [sic]), purified from B-lymphoblastic cell line IWB (human); test: competition with fluorescent HA308-319 on purified HLA-DR2

Substance	IC50 [1]	IC50 [2]
HPV16 E2 peptide 331-365	8 µM	20 µM
HPV16 E2 peptide 316-345	6 µM	55 µM
HPV16 E2 peptide 301-330	6 µM	8 µM
HPV16 E2 peptide 286-315	8 µM	
HPV16 E2 peptide 271-300	22 µM	65 µM
